Reference: article PMC10106849

Target: T1, RsCDF3 (Raphanus sativus, UniProt A0A6J0K2F2 1-435)
T1 sequence: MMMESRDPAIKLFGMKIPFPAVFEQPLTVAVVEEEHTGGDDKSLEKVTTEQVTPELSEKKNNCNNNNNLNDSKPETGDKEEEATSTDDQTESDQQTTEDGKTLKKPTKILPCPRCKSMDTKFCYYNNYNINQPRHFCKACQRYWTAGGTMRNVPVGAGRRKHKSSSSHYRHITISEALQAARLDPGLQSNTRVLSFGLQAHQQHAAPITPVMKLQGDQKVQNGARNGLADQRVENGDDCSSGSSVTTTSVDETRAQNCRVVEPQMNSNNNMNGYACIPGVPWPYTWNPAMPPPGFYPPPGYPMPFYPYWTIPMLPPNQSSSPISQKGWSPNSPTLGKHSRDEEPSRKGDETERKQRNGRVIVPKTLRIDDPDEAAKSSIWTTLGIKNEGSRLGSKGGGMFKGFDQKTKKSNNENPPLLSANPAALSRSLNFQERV
Assay: competition

B1: mP1 mutated probe (dsDNA)
DNA 1: AATACACATTTATAATGTCTAGTTAAACTTAC
DNA 2: GTAAGTTTAACTAGACATTATAAATGTGTATT
- binding result: no binding
